Measured values: paper PMC4215650 (Nature, 2014)

B1: Ring1B(2-116), as it stands in the crystal (domain or fragment)
chain: SQAVQTNGTQPLSKTWELSLYELQRTPQEAITDGLEIVVSPRSLHSELMCPICLDMLKNTMTTKECLHRFCADCIITALRSGNKECPTCRKKLVSKRSLRPDPNFDALISKIYPS

Tests used:
Experiment in all cases: crystal structure
[1] = molecular target: B1
[2] = molecular target: histone H2B, Xenopus, in the nucleosome core particle (Xenopus, UniProt P02281 5-126)
[3] = molecular target: histone H4, Xenopus, in the nucleosome core particle (Xenopus, UniProt P62799 2-103)

binding result [1] | binding result [2] | binding result [3] | Binder
binds | binds | binds | Bmi1(2-109), as it stands in the crystal (domain or fragment) HRTTRIKITELNPHLMCVLCGGYFIDATTIIECLHSFCKTCIVRYLETSKYCPICDVQVHKTRPLLNIRSDKTLQDIVYKLVPGLFKNEMKRRRDFYAAHPSADAANG
– | binds | – | B1
